{
  "source": "paper doi:10.1101/2022.03.24.485560",
  "data": [
    {"molecular_target": "TRIM7 PRY-SPRY domain (338-511 aa) (human) (UniProt Q9C029)", "assay": "ITC", "units": {"Kd": "µM"}, "values": [
      {"substance": "CVB3 2C (117-329 aa) (domain or fragment)", "Kd": 6},
      {"substance": "CVB3 2C-derived peptide (319-329 aa)", "Kd": 3},
      {"substance": "C-terminal peptide fragment of glycogenin-1 (GN1)", "Kd": 8},
      {"substance": "C-terminal peptide fragment of RACO-1", "Kd": 10}
    ]}
  ]
}
